The test system of test [1] is mouse eyes. Briefly: Intravitreal injection of ANGPTL7 protein in mice, IOP measured over time. The test is classed as in vivo. As for the experimental part: (§1) Isoflurane anesthetized IOPs were measured as previously described. For IOP measurements, mice were anesthetized before IOP was measured in both eyes using a TonoLab rebound tonometer (Colonial Medical Supply, Franconia, N H). IOP measurements for both eyes were completed in 3-5 minutes. IOP in each eye was measured before start of Angptl7 injections and every day afterwards for six days.
A 33-gauge needle with a glass microsyringe (5-4 volume; Hamilton Company) was used. The eye was proptosed, and the needle was inserted through the equatorial sclera and inserted into the vitreous chamber at an angle of approximately 45 degrees, taking care to avoid touching the posterior part of the lens or the retina. ANGPTL7 protein (catalog #4960-AN-025; R&D Systems, Minneapolis, MN) or PBS (1 μL) was injected into the vitreous over the course of 1 minute. The needle was then left in place for a further 45 seconds (to facilitate mixing), before being rapidly withdrawn. Only one injection was administered at day 0.

Test [2] concerns mouse eyes. The experiment in a line: Intracameral injection of ANGPTL7 protein in mice, IOP measured over time. It is filed as in vivo. As for the experimental part:
as §1
A 33-gauge needle with a glass microsyringe (5-4 volume) (Hamilton Company) was used. Before and during injection, mice were anesthetized with isoflurane (2.5%) containing oxygen (0.8 L/min). For topical anesthesia, both eyes received one to two drops of 0.5% proparacaine HCl (Akorn, Inc.). Each eye was proptosed and the needle was inserted through the cornea just above the limbal region and into the anterior chamber at an angle parallel to the cornea, taking care to avoid touching the iris, anterior lens capsule epithelium, or corneal endothelium. Up to 1 μL of ANGPTL7 protein (catalog #4960-AN-025; R&D Systems, Minneapolis, MN) or PBS was injected slowly (over a 30-second period). The needle was then withdrawn. The procedure was performed on both eyes of each animal. Only one injection was administered at day 0.

B1: ANGPTL7 protein: ANGPTL7 protein (catalog #4960-AN-025; R&D Systems), murine Angptl7 protein injected into mouse eyes (protein, UniProt Q8R1Q3 22-337, looked up)
Angiopoietin-related protein 7: QKPHKRKTQLKAAGCCEEMRELKAQVANLSSLLGELSRKQESDWVSVVMQVMELESSSKHMESRLSTAESKYSEMNNQIDIMQLQAAQTVTQTSADAIYDCSSLYQKNYRISGVYKLPPDEFLGSPELEVFCDMETSGGGWTIIQRRKSGLVSFYQDWRQYKQGFGSIRGDFWLGNEHIHRLTRQPSRLRVELEDWEGNARYAEYSYFALGNELNSYRLFLGNYSGNVGKDALLYHNNTVFSTKDKDNDNCLDKCAQLRKGGYWYNCCTDSNLNGVYYRLGEHRKHMDGISWYGWHGANYSLKRVEMKIRPEAFKP
As to B1, the “elevation of IOP” value is given as 4-5 mmHg in test [1] (mice, single intravitreal injection at day 0, after an initial drop, starting on day 4 until end of experiment on day 7) and 2-5 mmHg in test [2] (mice, single intracameral injection at day 0, after an initial drop, starting on day 3 until end of experiment on day 7). Further, in test [1] (mice, single intravitreal injection at day 0, starting on day 4 until day 7), the “elevation of IOP compared to baseline” value is on record as 22-25%. The “IOP in Angptl7-treated eyes compared to control eyes” value was “elevated” in test [1] (mouse eyes, intravitreal route, after an initial drop (FIG. 6A)) and “elevated” in test [2] (mouse eyes, intracameral route, after an initial drop (FIG. 6B)).

These data come from patent publication US11845989B2, “Treatment of ophthalmic conditions with angiopoietin-like 7 (ANGPTL7) inhibitors” (Regeneron Pharmaceuticals, Inc., priority 2019, dated 2023).
